The text below walks through data of publication PMC4243253.

The series relates to N[C@@H](CC(=O)c1ccccc1NC=O)C(=O)O. As to the kind of experiment: purified protein. To be noted: 0.1 M sodium phosphate, pH 7.4, 20 μM ZnCl2, 25°C.

In general, Km refers to the substrate concentration at which the rate is half of its maximum. For orientation: Vmax means the top rate of the reaction or transport when substrate is in excess. As a reminder, the kcat is the number of substrate molecules converted per active site and unit of time at saturation. Broadly, the kcat/Km is the turnover number divided by the Michaelis constant. Consider “PaKynB-His (Pseudomonas aeruginosa PAO1)”, for which the Km stood at 980 ± 130 µM, the Vmax worked out at 0.148 µmol/min, the kcat worked out at 114 s⁻¹ and the kcat/Km was 116000 M⁻¹ s⁻¹.
